Experiment [1] has as its target T1, human CD22 on CD22-positive Burkitt's lymphoma cells (Daudi, Raji, Ramos) (human, UniProt P20273 20-847).
T1 construct: whole, on cells; also called CD22+ cells; CD22 positive cells
T1 sequence (looked up): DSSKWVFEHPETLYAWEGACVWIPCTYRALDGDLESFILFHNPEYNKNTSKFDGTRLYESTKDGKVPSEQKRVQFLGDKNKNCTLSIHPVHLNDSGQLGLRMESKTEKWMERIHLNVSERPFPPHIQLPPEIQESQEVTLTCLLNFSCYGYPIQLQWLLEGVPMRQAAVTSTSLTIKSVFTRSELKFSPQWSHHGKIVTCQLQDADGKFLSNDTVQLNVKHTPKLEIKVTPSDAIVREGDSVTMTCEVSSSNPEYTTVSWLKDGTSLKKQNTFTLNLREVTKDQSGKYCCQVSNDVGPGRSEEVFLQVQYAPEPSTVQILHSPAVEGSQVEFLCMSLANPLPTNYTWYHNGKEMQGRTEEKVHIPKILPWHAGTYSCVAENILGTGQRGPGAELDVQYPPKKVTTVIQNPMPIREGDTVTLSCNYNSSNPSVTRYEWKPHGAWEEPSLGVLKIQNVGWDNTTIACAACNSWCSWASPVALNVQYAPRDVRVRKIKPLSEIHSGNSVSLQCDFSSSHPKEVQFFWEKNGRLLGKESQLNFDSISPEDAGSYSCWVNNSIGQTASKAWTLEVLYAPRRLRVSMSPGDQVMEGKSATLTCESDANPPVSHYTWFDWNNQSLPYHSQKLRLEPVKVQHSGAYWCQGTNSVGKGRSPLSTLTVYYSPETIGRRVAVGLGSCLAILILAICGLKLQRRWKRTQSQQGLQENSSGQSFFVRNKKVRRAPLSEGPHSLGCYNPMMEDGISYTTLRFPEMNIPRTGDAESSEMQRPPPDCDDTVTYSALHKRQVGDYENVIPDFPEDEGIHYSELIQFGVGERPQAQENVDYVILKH
The experiment in a line: cell binding, Daudi cells.

In experiment [2] the target is T2, human CD22 protein (recombinant CD22 extracellular domain) (human, UniProt P20273 20-687).
T2 construct: extracellular domain; also called SIGLEC-2
T2 sequence (looked up): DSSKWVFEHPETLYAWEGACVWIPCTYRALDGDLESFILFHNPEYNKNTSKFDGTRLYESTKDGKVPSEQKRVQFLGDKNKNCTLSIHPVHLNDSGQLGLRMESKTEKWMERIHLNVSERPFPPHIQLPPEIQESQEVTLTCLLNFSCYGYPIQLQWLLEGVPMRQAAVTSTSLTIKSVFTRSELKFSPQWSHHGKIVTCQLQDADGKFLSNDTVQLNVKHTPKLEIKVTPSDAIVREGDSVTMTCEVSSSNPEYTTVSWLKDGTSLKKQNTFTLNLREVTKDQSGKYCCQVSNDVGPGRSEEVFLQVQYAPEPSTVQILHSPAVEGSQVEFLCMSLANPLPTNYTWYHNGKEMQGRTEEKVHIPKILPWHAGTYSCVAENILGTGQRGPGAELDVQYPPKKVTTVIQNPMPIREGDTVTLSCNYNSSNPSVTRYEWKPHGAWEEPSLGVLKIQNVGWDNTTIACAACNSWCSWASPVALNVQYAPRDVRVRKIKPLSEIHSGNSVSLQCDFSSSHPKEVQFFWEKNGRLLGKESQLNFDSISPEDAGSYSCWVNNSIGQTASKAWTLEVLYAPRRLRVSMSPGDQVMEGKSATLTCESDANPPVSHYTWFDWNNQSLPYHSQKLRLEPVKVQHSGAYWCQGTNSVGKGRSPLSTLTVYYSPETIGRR
Nature of the experiment: ELISA on recombinant CD22 extracellular domain and/or cell binding. In general terms: ELISA stands for enzyme-linked immunosorbent assay.

B1: anti-CD22 heavy chain-only antibody with the VH of SEQ ID NO: 77 (antibody, V domains shown)
VH: QLQLQESGPGLVKPSETLSLTCTVSGGSISSSSYYWGWFRHPPGKGLDWIGSIHYSGSTYYNPSLKSRVTISVDTSRNQFSLNLSSVTAADTAVYYCTRDDSSNWRSRGQGTLVTVSS
notes: Heavy chain-only antibody (UniAb), human IgG
B1: the binding result in experiment [1] and in experiment [2] was “binds” each time.

B2: anti-CD22 heavy chain-only antibody with the VH of SEQ ID NO: 81 (antibody, V domains shown)
VH: QLQLQESGPGLVKPSETLSLTCTVSGGSIISSSYYWGWIRQPPGKGLEWIGSIYYSGSAYYHPSLKSRVTISIDTSKNQFSLKLSSVTAADTAVYYCARDDSSNWRSRGQGTLVTVSS
notes: as for B1
Consider B2, for which the binding result in experiment [1] and in experiment [2] was “binds” each time.

B3: anti-CD22 heavy chain-only antibody with the VH of SEQ ID NO: 83 (antibody, V domains shown)
VH: QLQLQESGPGLVKPSETLSLTCTVSGDSISSGDYYWGWIRQPPGKGLEWIGHIYYSGATYYNPSLKNRVTISVDTSRNQSSLNLSSVTAADTAVYYCTREDSSNWRSRGQGTLVTVSS
notes: as for B1
Consider B3, for which the binding result in experiment [1] and in experiment [2] was “binds” each time.

B4: anti-CD22 heavy chain-only antibody with the VH of SEQ ID NO: 84 (antibody, V domains shown)
VH: QLQLQESGPGLVKPSETLSLTCTVSGGSINDNSHYWGWIRQPPGKGLEWIGHIYYSGATYYNPSLKNRVTISVDTSRNQFSLNLSSVTAADTAVYYCTREDSSSWRSRGQGTLVTVSS
notes: as for B1
Turning to B4, the binding result in experiment [1] and in experiment [2] was “binds” in each case.

B5: anti-CD22 heavy chain-only antibody with the VH of SEQ ID NO: 82 (antibody, V domains shown)
VH: QLQLQESGPGLVKPSETLSLTCTVSGGSISSSSYYWGWIRQPPGKGLEWIGSIYYSGATYYNPSLKNRVTISVDTSRNQFSLNLSSVTAADTAVYYCTRDDSSNWRSRGQGTLVTVSS
notes: as for B1
Turning to B5, the binding result in experiment [1] and in experiment [2] was “binds” in each case.

B6: anti-CD22 heavy chain-only antibody with the VH of SEQ ID NO: 55 (antibody, V domains shown)
VH: QLQLQESGPGLVKPSETLSLTCAVYGGSFSGYYWGWIRQPPGKGLEWIGHIYYSGATYYNPSLKNRVTISVDTSRNQFSLNLSSVTAADTAVYYCTREDSSSWRSRGQGTLVTVSS
notes: as for B1
For B6, the binding result in experiment [1] and in experiment [2] was “binds” in each case.

Values taken from patent US11873336 (TENEOBIO, dated 2024).
